Results as given in US20260042827A1, “ANTI-WT1 ANTIGEN-BINDING PROTEINS AND USES THEREOF” (UNIVERSITY HEALTH NETWORK, priority 2022, published 2026).

Tested on: WT1 peptide presented by HLA-DP molecules on K562 transfectants
Assay: Flow cytometric staining of K562 transfectants with WT1-specific mAb
Format: cell-based, human
Details: flow cytometry; for recognition of naturally processed WT1 peptide on K562/DP cells: K562/DP2 and K562/DP4, endogenous or ectopic WT1; for recognition of exogenously-pulsed WT1 peptide presented by DP molecules: K562 transfectants pulsed with WT1 peptide
Description: FIGS. 5A-5S present data showing that WT1-specific mAbs bind to WTT peptide presented by HLA-DP molecules. FIGS. 5A-5B show binding of B7/21 (an anti-HLA-DP mAb) or WT1-specific mAbs to immobilized WT1 peptide or DP4/WT1 monomers as assessed by ELISA. m Abs were added to ELISA plate coated with WT1330-348 or CLIP (control) (FIG. 5A). mAbs were added to ELISA plate coated with DP4/WT1330-348 monomers or DP4/CLIP monomers (control) (FIG. 5B). The data shown represent the mean±SD of experiments performed in triplicates. Results are representative of two independent experiments. ns, not significant, *p<0.05, **p<0.01, ***p<0.001, ****p<0.0001 by two-way ANOVA with Bonferroni correction. […] Interaction strength was measured by a BLI binding assay. FIGS. 5F-5K show the indicated K562 transfectants pulsed with WT1330-348 or CLIP (control) and stained with WT1-specific mAb, 5H2, followed by PE-conjugated anti-mouse secondary Ab and flow cytometric analysis. FIGS. 5L-5S show the indicated K562 transfectants stained with WT1-specific mAb, 5H2, or isotype control mAb, followed by PE-conjugated anti-mouse secondary Ab and flow cytometric analysis.
For surface staining, cells were pelleted and resuspended in a mAb master mix diluted in a PBS/2% FBS buffer. Cells were incubated at 4° C. for 15 minutes and washed prior to analysis. Monoclonal antibodies recognizing the following targets were used for surface staining: CD4 (300505, 1:40, BioLegend), CD8 (301007, 1:100, BioLegend), pan HLA class II (361703, 1:100, BioLegend), NGFR (345131, 1:40, BioLegend), CD25 (301007, 1:100, BioLegend), CD62L (304805, 1:25, BioLegend), CD45RA (304111, 1:10, BioLegend), PD-1 (329905, 1:40, BioLegend), Tim-3 (345007, 1:20, BioLegend). Mouse isotype controls were purchased from BioLegend. Biotinylated Protein-L was purchased from GenScript. For intracellular cytokine staining, TCR or CAR-T cells were stimulated with indicated target cells at an E:T ratio of 1:1. Brefeldin A (BioLegend) was added to the culture media after 2 hours, and the cells were further cultured for 4 hours. Following the surface marker staining, the cells were fixed and permeabilized using the Cytofix/Cytoperm Kit (BD Biosciences) and stained with FITC-anti-IL-2 (500305, 1:20, BioLegend), APC-anti-TNF-α (502913, 1:100, BioLegend), and PE-Cy7-anti-IFN-7 (506517, 1:200, BioLegend). The frequency of cytokine-producing cells within the CD8^+ or CD4^+ T cell population was determined by flow cytometric analysis. For intracellular WT1 staining, cells were fixed and permeabilized using the Cytofix/Cytoperm Kit (BD Biosciences) and stained with mouse anti-WT1 mAb (NB110-60011SS, 1:200, Novus Biologicals), followed by BV421-anti-mouse IgG (405317, 1:20, BioLegend). […]

B1: 5H2: mouse WT1-specific mAb raised against WT1330-348 peptide; VH SEQ ID NO: 37, VL SEQ ID NO: 38 (antibody, V domains shown)
VH: EVQLQQSGAELVRPGALVKLSCKASGFNIKDYYMHWVKQRPEQGLEWIGWIDPENGNTIYDPKFQGKASITADTSSNTAYLQLSSLTSGDTAVYYCTRDGYYMVFAYWGQGTLVTVSA
VL: DIQMTQSPSSLSASLGGKVTITCKASQDINKCIAWYKHKPGKGPRLLIHYTSILQPGIPSRFSGSGSGRDYSFSISNLEPEDIATYYCLQYDNLYTFGGGTKLEIK
modifications: 5H2 - VH; 5H2 - VL
  recognition of naturally processed WT1 peptide on K562/DP cells: can bind to K562/DP2 and K562/DP4 cells which express endogenous WT1
  recognition of exogenously-pulsed WT1 peptide presented by DP molecules: can recognize exogenously-pulsed WT1330-348 presented by multiple DP molecules such as DP2 and DP5 in addition to DP4
Listed as WT1-specific mAb
  recognition of naturally processed WT1 peptide on K562/DP cells: can recognize naturally processed WT1 peptide presented by HLA-DP2
  recognition of exogenously-pulsed WT1 peptide presented by DP molecules: can recognize exogenously-pulsed WT1328-348 peptide presented by different HLA-DP molecules
